Measured values: patent US20170306033A1 (Amgen, published 2017)

Columns and labels:
[1] = target: human CGRP receptor (human, UniProt Q16602 23-461; O60894 27-148); assay: cell-based or functional assay
[2] = target: T1, human PAC1 receptor (human, UniProt P41586 21-468); assay: cell-based or functional assay
T1 sequence: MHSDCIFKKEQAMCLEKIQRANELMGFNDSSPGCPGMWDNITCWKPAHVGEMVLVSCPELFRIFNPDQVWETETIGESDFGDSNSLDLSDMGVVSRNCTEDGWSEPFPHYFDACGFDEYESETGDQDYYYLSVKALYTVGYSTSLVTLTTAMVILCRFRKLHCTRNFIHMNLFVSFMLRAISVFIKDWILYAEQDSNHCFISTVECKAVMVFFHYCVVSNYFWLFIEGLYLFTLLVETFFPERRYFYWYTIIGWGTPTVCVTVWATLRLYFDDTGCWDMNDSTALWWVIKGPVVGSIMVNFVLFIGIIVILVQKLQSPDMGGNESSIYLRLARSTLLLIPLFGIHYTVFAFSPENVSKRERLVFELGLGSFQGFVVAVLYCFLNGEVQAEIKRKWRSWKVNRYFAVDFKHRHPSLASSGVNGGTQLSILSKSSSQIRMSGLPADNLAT

human CGRP receptor, sequence (Q16602 23-461 limits assumed, chain 1 of 2): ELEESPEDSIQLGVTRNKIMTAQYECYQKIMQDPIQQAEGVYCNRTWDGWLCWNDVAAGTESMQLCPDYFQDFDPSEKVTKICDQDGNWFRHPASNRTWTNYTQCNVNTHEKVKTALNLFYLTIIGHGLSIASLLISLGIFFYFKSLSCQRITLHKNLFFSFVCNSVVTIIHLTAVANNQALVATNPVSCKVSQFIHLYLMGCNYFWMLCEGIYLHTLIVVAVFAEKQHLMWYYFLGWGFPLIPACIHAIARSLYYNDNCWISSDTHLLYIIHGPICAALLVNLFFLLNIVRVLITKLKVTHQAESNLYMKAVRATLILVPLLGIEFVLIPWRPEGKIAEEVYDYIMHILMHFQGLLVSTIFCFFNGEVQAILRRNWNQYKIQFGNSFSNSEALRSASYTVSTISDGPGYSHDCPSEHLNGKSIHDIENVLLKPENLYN
human CGRP receptor, sequence (O60894 27-148 limits assumed, chain 2 of 2): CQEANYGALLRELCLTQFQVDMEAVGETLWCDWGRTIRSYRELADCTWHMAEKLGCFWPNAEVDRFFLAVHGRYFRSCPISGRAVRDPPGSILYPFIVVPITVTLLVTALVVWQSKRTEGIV

B1: iPS:327739 (bispecific antibody, human IgG1, kappa, lambda, N297G)
light 1: not shown
heavy 1: not shown
light 2: QSVLTQPPSVSAAPGQKVTISCSGSSSNIGNNYVSWYQQLPGTAPKLLIYDNNKRPSGIPDRFSGSKSGTSATLGITGLQTGDEADYYCGTWDSRLSAVVFGGGTKLTVLGQPKANPTVTLFPPSSEELQANKATLVCLISDFYPGAVTVAWKADGSPVKAGVETTKPSKQSNNKYAAKSYLSLTPEQWKSHRSYSCQVTHEGSTVEKTVAPTECS
heavy 2: QVQLVESGGGVVQPGRSLRLSCAASGFTFSSFGMHWVRQAPGKGLEWVAVISFDGSIKYSVDSVKGRFTISRDNSKNTLFLQMNSLRAEDTAVYYCARDRLNYYESSGYYHYKYYGMAVWGQGTTVTVSSASTKGPSVFPLAPSSKSTSGGTAALGCLVKDYFPEPVTVSWNSGALTSGVHTFPAVLQSSGLYSLESVVTVPSSSLGTQTYICNVNHKPSNTKVDKKVEPKSCDKTHTCPPCPAPELLGGPSVFLFPPKPKDTLMISRTPEVTCVVVDVSHEDPEVKFNWYVDGVEVHNAKTKPCEEQYGSTYRCVSVLTVLHQDWLNGKEYKCKVSNKALPAPIEKTISKAKGQPREPQVYTLPPSRKKMTKNQVSLTCLVKGFYPSDIAVEWESNGQPENNYKTTPPVLKSDGSFFLYSKLTVDKSRWQQGNVFSCSVMHEALHNHYTQKSLSLSPGK
- % inhibition of human CGRPR [1]: 79%
- % inhibition of human PAC1 [2]: 76%

B2: iPS:327875 (bispecific antibody, human IgG1, kappa, N297G)
light 1: not shown
heavy 1: not shown
light 2: EIVLTQSPGTLSLSPGERATLSCRASQSVSSGYLTWYQQKPGQAPRLLIYGASSRATGIPDRFSGSGSGTDFTLTISRLEPEDFAVYYCQQYGNSLSRFGKGTKLEIKRTVAAPSVFIFPPSDEQLKSGTASVVCLLNNFYPREAKVQWKVDNALQSGNSQESVTEQDSKDSTYSLKSTLTLSKADYEKHKVYACEVTHQGLSSPVTKSFNRGEC
heavy 2: QVQLVESGGGVVQPGRSLRLSCAASGFTFSSYGMHWVRQAPGKELEWVAVIWYDGSNKYYAESVKGRFIISRDKSKNTLYLQMNSLRAEDTAVYYCARAGGIAAAGLYYYYGMDVWGQGTTVTVSSASTKGPSVFPLAPSSKSTSGGTAALGCLVKDYFPEPVTVSWNSGALTSGVHTFPAVLQSSGLYSLESVVTVPSSSLGTQTYICNVNHKPSNTKVDKKVEPKSCDKTHTCPPCPAPELLGGPSVFLFPPKPKDTLMISRTPEVTCVVVDVSHEDPEVKFNWYVDGVEVHNAKTKPCEEQYGSTYRCVSVLTVLHQDWLNGKEYKCKVSNKALPAPIEKTISKAKGQPREPQVYTLPPSRKEMTKNQVSLTCLVKGFYPSDIAVEWESNGQPENNYKTTPPVLKSDGSFFLYSKLTVDKSRWQQGNVFSCSVMHEALHNHYTQKSLSLSPGK
- % inhibition of human CGRPR [1]: 83%
- % inhibition of human PAC1 [2]: 10%

B3: iPS:327740 (bispecific antibody, human IgG1, kappa, lambda, N297G)
light 1: not shown
heavy 1: not shown
light 2: QSVLTQPPSVSAAPGQKVTISCSGSSSNIGNNYVSWYQQLPGTAPKLLIYDNNKRPSGIPDRFSGSKSGTSATLGITGLQTGDEADYYCGTWDSRLSAVVFGGGTKLTVLGQPKANPTVTLFPPSSEELQANKATLVCLISDFYPGAVTVAWKADGSPVKAGVETTKPSKQSNNKYAAKSYLSLTPEQWKSHRSYSCQVTHEGSTVEKTVAPTECS
heavy 2: QVQLVESGGGVVQPGRSLRLSCAASGFTFSSFGMHWVRQAPGKGLEWVAVISFDGSIKYSVDSVKGRFTISRDNSKNTLFLQMNSLRAEDTAVYYCARDRLNYYESSGYYHYKYYGMAVWGQGTTVTVSSASTKGPSVFPLAPSSKSTSGGTAALGCLVKDYFPEPVTVSWNSGALTSGVHTFPAVLQSSGLYSLESVVTVPSSSLGTQTYICNVNHKPSNTKVDKKVEPKSCDKTHTCPPCPAPELLGGPSVFLFPPKPKDTLMISRTPEVTCVVVDVSHEDPEVKFNWYVDGVEVHNAKTKPCEEQYGSTYRCVSVLTVLHQDWLNGKEYKCKVSNKALPAPIEKTISKAKGQPREPQVYTLPPSRKKMTKNQVSLTCLVKGFYPSDIAVEWESNGQPENNYKTTPPVLKSDGSFFLYSKLTVDKSRWQQGNVFSCSVMHEALHNHYTQKSLSLSPGK
- % inhibition of human CGRPR [1]: 74%
- % inhibition of human PAC1 [2]: 58%

B4: iPS:327876 (bispecific antibody, human IgG1, kappa, N297G)
light 1: DIQMTQSPSSLSASVGDRITITCRASQSISRYLNWYQQKPGKAPKLLIYAASSLQSGIPSRFSGSGSGTDFTLTINSLQPEDFATYFCQQSYSPPFTFGQGTKVDIKRTVAAPSVFIFPPSDEQLKSGTASVVCLLNNFYPREAKVQWKVDNALQSGNSQESVTEQDSKDSTYSLESTLTLSKADYEKHKVYACEVTHQGLSSPVTKSFNRGEC
heavy 1: not shown
light 2: EIVLTQSPGTLSLSPGERATLSCRASQSVSSGYLTWYQQKPGQAPRLLIYGASSRATGIPDRFSGSGSGTDFTLTISRLEPEDFAVYYCQQYGNSLSRFGQGTKLEIKRTVAAPSVFIFPPSDEQLKSGTASVVCLLNNFYPREAKVQWKVDNALQSGNSQESVTEQDSKDSTYSLKSTLTLSKADYEKHKVYACEVTHQGLSSPVTKSFNRGEC
heavy 2: not shown
- % inhibition of human CGRPR [1]: 77%
- % inhibition of human PAC1 [2]: 11%

B5: iPS:327741 (bispecific antibody, human IgG1, kappa, lambda, N297G)
light 1: DIQLTQSPSFLSASVGDRVTITCRASQSIGRSLHWYQQKPGKAPKLLIKYASQSLSGVPSRFSGSGSGTEFTLTISSLQPEDFATYYCHQSSRLPFTFGPGTKVDIKRTVAAPSVFIFPPSDEQLKSGTASVVCLLNNFYPREAKVQWKVDNALQSGNSQESVTEQDSKDSTYSLESTLTLSKADYEKHKVYACEVTHQGLSSPVTKSFNRGEC
heavy 1: not shown
light 2: QSVLTQPPSVSAAPGQKVTISCSGSSSNIGNNYVSWYQQLPGTAPKLLIYDNNKRPSGIPDRFSGSKSGTSATLGITGLQTGDEADYYCGTWDSRLSAVVFGGGTKLTVLGQPKANPTVTLFPPSSEELQANKATLVCLISDFYPGAVTVAWKADGSPVKAGVETTKPSKQSNNKYAAKSYLSLTPEQWKSHRSYSCQVTHEGSTVEKTVAPTECS
heavy 2: QVQLVESGGGVVQPGRSLRLSCAASGFTFSSFGMHWVRQAPGKGLEWVAVISFDGSIKYSVDSVKGRFTISRDNSKNTLFLQMNSLRAEDTAVYYCARDRLNYYESSGYYHYKYYGMAVWGQGTTVTVSSASTKGPSVFPLAPSSKSTSGGTAALGCLVKDYFPEPVTVSWNSGALTSGVHTFPAVLQSSGLYSLESVVTVPSSSLGTQTYICNVNHKPSNTKVDKKVEPKSCDKTHTCPPCPAPELLGGPSVFLFPPKPKDTLMISRTPEVTCVVVDVSHEDPEVKFNWYVDGVEVHNAKTKPCEEQYGSTYRCVSVLTVLHQDWLNGKEYKCKVSNKALPAPIEKTISKAKGQPREPQVYTLPPSRKKMTKNQVSLTCLVKGFYPSDIAVEWESNGQPENNYKTTPPVLKSDGSFFLYSKLTVDKSRWQQGNVFSCSVMHEALHNHYTQKSLSLSPGK
- % inhibition of human CGRPR [1]: 83%
- % inhibition of human PAC1 [2]: 70%

B6: iPS:327871 (bispecific antibody, human IgG2, kappa, lambda)
light 1: DIQLTQSPSFLSASVGDRVTITCRASQSIGRSLHWYQQKPGKAPKLLIKYASQSLSGVPSRFSGSGSGTEFTLTISSLQPEDFATYYCHQSSRLPFTFGPGTKVDIKRTVAAPSVFIFPPSDEQLKSGTASVVCLLNNFYPREAKVQWKVDNALQSGNSQESVTEQDSKDSTYSLESTLTLSKADYEKHKVYACEVTHQGLSSPVTKSFNRGEC
heavy 1: QVQLVESGAEVVKPGASVKVSCKASGFTFSRFAMHWVRQAPGQGLEWMGVISYDGGNKYYAESVKGRVTMTRDTSTSTLYMELSSLRSEDTAVYYCARGYDVLTGYPDYWGQGTLVTVSSASTKGPSVFPLAPCSRSTSESTAALGCLVKDYFPEPVTVSWNSGALTSGVHTFPAVLQSSGLYSLKSVVTVPSSNFGTQTYTCNVDHKPSNTKVDKTVERKCCVECPPCPAPPVAGPSVFLFPPKPKDTLMISRTPEVTCVVVDVSHEDPEVQFNWYVDGVEVHNAKTKPREEQFNSTFRVVSVLTVVHQDWLNGKEYKCKVSNKGLPAPIEKTISKTKGQPREPQVYTLPPSREEMTKNQVSLTCLVDGFYPSDIAVEWESNGQPENNYDTTPPMLDSDGSFFLYSDLTVDKSRWQQGNVFSCSVMHEALHNHYTQKSLSLSPGK
light 2: QSVLTQPPSVSAAPGQKVTISCSGSSSNIGNNYVSWYQQLPGTAPKLLIYDNNKRPSGIPDRFSGSKSGTSTTLGITGLQTGDEADYYCGTWDSRLSAVVFGGGTKLTVLGQPKANPTVTLFPPSSEELQANKATLVCLISDFYPGAVTVAWKADGSPVKAGVETTKPSKQSNNKYAAKSYLSLTPEQWKSHRSYSCQVTHEGSTVEKTVAPTECS
heavy 2: QVQLVESGGGVVQPGRSLRLSCAASGFTFSSFGMHWVRQAPGKGLEWVAVISFDGSIKYSVDSVKGRFTISRDNSKNTLFLQMNSLRAEDTAVYYCARDRLNYYDSSGYYHYKYYGMAVWGQGTTVTVSSASTKGPSVFPLAPCSRSTSESTAALGCLVKDYFPEPVTVSWNSGALTSGVHTFPAVLQSSGLYSLESVVTVPSSNFGTQTYTCNVDHKPSNTKVDKTVERKCCVECPPCPAPPVAGPSVFLFPPKPKDTLMISRTPEVTCVVVDVSHEDPEVQFNWYVDGVEVHNAKTKPREEQFNSTFRVVSVLTVVHQDWLNGKEYKCKVSNKGLPAPIEKTISKTKGQPREPQVYTLPPSRKKMTKNQVSLTCLVKGFYPSDIAVEWESNGQPENNYKTTPPMLKSDGSFFLYSKLTVDKSRWQQGNVFSCSVMHEALHNHYTQKSLSLSPGK
- % inhibition of human CGRPR [1]: 65%
- % inhibition of human PAC1 [2]: 68%

B7: iPS:327877 (bispecific antibody, human IgG1, kappa, N297G)
light 1: not shown
heavy 1: not shown
light 2: EIVLTQSPGTLSLSPGERATLSCRASQSVSSGYLTWYQQKPGQAPRLLIYGASSRATGIPDRFSGSGSGTDFTLTISRLEPEDFAVYYCQQYGNSLSRFGQGTKLEIKRTVAAPSVFIFPPSDEQLKSGTASVVCLLNNFYPREAKVQWKVDNALQSGNSQESVTEQDSKDSTYSLKSTLTLSKADYEKHKVYACEVTHQGLSSPVTKSFNRGEC
heavy 2: not shown
- % inhibition of human CGRPR [1]: 72%
- % inhibition of human PAC1 [2]: 22%
